T1: R &D hRGMc-His (human, UniProt Q6ZVN8 36-400)
T1 construct: Bought (R&D) His-tagged human RGMc; also called human RGMc; not shown: His tag
T1 sequence: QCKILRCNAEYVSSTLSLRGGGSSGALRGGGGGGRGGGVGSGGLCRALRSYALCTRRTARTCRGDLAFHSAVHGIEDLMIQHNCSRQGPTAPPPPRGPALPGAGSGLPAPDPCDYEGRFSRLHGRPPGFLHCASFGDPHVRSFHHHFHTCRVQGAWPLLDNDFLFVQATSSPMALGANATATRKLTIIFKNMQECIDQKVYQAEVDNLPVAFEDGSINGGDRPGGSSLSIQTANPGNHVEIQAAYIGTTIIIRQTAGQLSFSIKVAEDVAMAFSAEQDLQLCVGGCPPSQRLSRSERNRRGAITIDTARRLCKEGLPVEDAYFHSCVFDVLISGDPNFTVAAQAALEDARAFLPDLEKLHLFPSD

T2: hRGMa-His (human, UniProt Q96B86 48-422, limits assumed)
T2 construct: not shown: His tag
T2 sequence: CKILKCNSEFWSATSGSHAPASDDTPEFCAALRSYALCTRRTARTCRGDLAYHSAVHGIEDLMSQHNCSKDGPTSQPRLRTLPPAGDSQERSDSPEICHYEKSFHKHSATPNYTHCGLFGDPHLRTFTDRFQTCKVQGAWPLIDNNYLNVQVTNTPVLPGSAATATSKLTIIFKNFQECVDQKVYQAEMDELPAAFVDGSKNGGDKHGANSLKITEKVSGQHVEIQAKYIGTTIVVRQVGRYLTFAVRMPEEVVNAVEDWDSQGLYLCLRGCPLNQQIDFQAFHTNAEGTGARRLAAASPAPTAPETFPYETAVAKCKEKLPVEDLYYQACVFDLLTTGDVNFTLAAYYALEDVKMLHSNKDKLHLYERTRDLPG

T3: hRGMc expressed in 293HEK cells (human, UniProt Q6ZVN8 36-400)
T3 sequence: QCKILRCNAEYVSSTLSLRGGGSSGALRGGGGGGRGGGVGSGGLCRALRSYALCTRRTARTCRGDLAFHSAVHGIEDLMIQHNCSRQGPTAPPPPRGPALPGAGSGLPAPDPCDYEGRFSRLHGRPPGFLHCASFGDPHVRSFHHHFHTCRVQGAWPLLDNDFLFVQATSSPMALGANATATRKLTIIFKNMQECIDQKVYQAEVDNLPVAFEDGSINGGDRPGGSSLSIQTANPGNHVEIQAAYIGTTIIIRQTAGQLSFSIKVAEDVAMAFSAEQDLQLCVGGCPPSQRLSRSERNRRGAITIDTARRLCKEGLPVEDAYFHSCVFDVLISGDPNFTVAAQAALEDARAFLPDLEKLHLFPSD


What was measured:
R &D hRGMc-His [1] = target: T1, R &D hRGMc-His; assay: affinity KD as listed in Table 4; method not given
Rat RGMa-His (rat) [2] = target: Rat RGMa-His (rat) (UniProt D4A188); assay: affinity KD as listed in Table 4 (equals BIAcore value of Table 5)
hRGMa-His [3] = target: T2, hRGMa-His; assay: as above
Rat RGMa-His (rat) [4] = target: Rat RGMa-His (rat) (UniProt D4A188); assay: BIAcore; Ab captured on CM5 chip via anti-hIgG Fc Ab, antigen injected; 1:1 Langmuir fit
hRGMa-His [5] = target: T2, hRGMa-His; assay: as above
R &D hRGMc-His [6] = target: T1, R &D hRGMc-His; assay: as above
[7] = target: T3, hRGMc expressed in 293HEK cells; assay: cell-based or functional assay

Kd (R &D hRGMc-His [1]) | Kd (Rat RGMa-His (rat) [2]) | Kd (hRGMa-His [3]) | Kd (Rat RGMa-His (rat) [4]) | koff (Rat RGMa-His (rat) [4]) | kon (Rat RGMa-His (rat) [4]) | Kd (hRGMa-His [5]) | koff (hRGMa-His [5]) | kon (hRGMa-His [5]) | Kd (R &D hRGMc-His [6]) | koff (R &D hRGMc-His [6]) | kon (R &D hRGMc-His [6]) | IC50, RGMc-mediated BMP reporter (BRE-luc) assay [7] | Binder
0.12 nM | < 0.00094 nM | 0.015 nM | < 0.00094 nM | < 1e-06 s⁻¹ | 1.1e+06 M⁻¹ s⁻¹ | 0.015 nM | 2.2e-05 s⁻¹ | 1.4e+06 M⁻¹ s⁻¹ | 0.13 nM | 0.00104 s⁻¹ | 7.85e+06 M⁻¹ s⁻¹ | – | h5F9.AM4 (antibody, V domains shown, also called RGMA-h5F9AM.4; RGMA-h5F9Vh7a/pJP29 1 hIgG1/K mut) VH: EVQLVESGGGLVQPGGSLRLSCAASGFTFSNYGMNWIRQAPGKGLEWIGMIYYDSSEKHYADSVKGRFTISRDNSKNTLYLQMNSLRAEDTAVYYCAKGTTPDYWGQGTMVTVSS VL: DVVLTQSPLSLPVTLGQPASISCRSSQSLESSDGDTFLEWFQQRPGQSPRLLIYDVSTRFSGVPDRFSGSGSGTDFTLKISRVEAEDVGVYYCFQVTHDPVTFGQGTKLEIK
– | – | – | 2.1 nM | 0.0017 s⁻¹ | 830000 M⁻¹ s⁻¹ | – | – | – | 29 nM | – | 830000 M⁻¹ s⁻¹ | 17 nM | humanized antibody 5F9.23 (antibody, V domains shown, Humanized parental antibody; also called h5F9.23; H5F9.23*) VH: EVQLVESGGGLVQPGGSLRLSCAASGFTFSNYGMNWIRQAPGKGLEWIGMIYYDSSEKHYADSVKGRFTISRDNSKNTLYLQMNSLRAEDTAVYYCAKGTTPDYWGQGTMVTVSS VL: DVVLTQSPLSLPVTLGQPASISCRSSQSLEYSDGYTFLEWFQQRPGQSPRLLIYEVSNRFSGVPDRFSGSGSGTDFTLKISRVEAEDVGVYYCFQATHDPLTFGQGTKLEIKR
0.25 nM | 0.074 nM | 0.11 nM | 0.074 nM | 5.2e-05 s⁻¹ | 700000 M⁻¹ s⁻¹ | 0.11 nM | 9.9e-05 s⁻¹ | 930000 M⁻¹ s⁻¹ | 0.285 nM | 0.0014 s⁻¹ | 5.05e+06 M⁻¹ s⁻¹ | – | h5F9.AM11 (antibody, V domains shown, also called RGMA-h5F9AM; 11; RGMA-h5F9pJP302/pJP 303 hIgG1/K mut) VH: EVQLVESGGGLVQPGGSLRLSCAASGFTFSNYGMNWVRQAPGKGLEWVSMIYYDSSEKHYADSVKGRFTISRDNSKNTLYLQMNSLRAEDTAVYYCAKGTTPDYWGQGTMVTVSS VL: DVVLTQSPLSLPVTLGQPASISCRSSQSLEDSDGGTFLEWFQQRPGQSPRLLIYDVSSRFSGVPDRFSGSGSGTDFTLKISRVEAEDVGVYYCFQATHDPLSFGQGTKLEIK
0.69 nM | 0.31 nM | 0.47 nM | 0.31 nM | 0.00021 s⁻¹ | 680000 M⁻¹ s⁻¹ | 0.47 nM | 0.0004 s⁻¹ | 860000 M⁻¹ s⁻¹ | 0.71 nM | 0.0107 s⁻¹ | 1.55e+07 M⁻¹ s⁻¹ | – | h5F9.AM9 (antibody, V domains shown, also called RGMA-h5F9AM.9; RGMA-h5F9pJP297/pJP 299 hIgG1/K mut) VH: EVQLVESGGGVVQPGRSLRLSCAASGFTFSNYGMNWVRQAPGKGLEWVAMIYYDSSEKHYADSVKGRFTISRDNSKNTLYLQMNSLRAEDTAVYYCARGTTPDYWGQGTMVTVSS VL: DVVLTQSPLSLPVTLGQPASISCRSSQSLADSDGDTFLHWFQQRPGQSPRLLIYAVSHRFSGVPDRFSGSGSGTDFTLKISRVEAEDVGVYYCFQATHDPVTFGQGTKLEIK
0.08 nM | < 0.0015 nM | 0.031 nM | < 0.0015 nM | < 1e-06 s⁻¹ | 660000 M⁻¹ s⁻¹ | 0.031 nM | 2.7e-05 s⁻¹ | 870000 M⁻¹ s⁻¹ | 0.105 nM | 0.00039 s⁻¹ | 3.95e+06 M⁻¹ s⁻¹ | – | h5F9.AM8 (antibody, V domains shown, also called RGMA-h5F9AM.8; RGMA-h5F9pJP297/pJP 298 hIgG1/K mut) VH: EVQLVESGGGLVQPGGSLRLSCAASGFTFSNYGMNWIRQAPGKGLEWIGMIYYDSSEKHYADSVKGRFTISRDNSKNTLYLQMNSLRAEDTAVYYCAKGTTPDYWGQGTMVTVSS VL: DVVLTQSPLSLPVTLGQPASISCRSSQSLEESDGYTFLHWFQQRPGQSPRLLIYEVSTRFSGVPDRFSGSGSGTDFTLKISRVEAEDVGVYYCFQATHDPLTFGQGTKLEIK

— patent EP4817631A2 (AbbVie Deutschland GmbH & Co. KG, dated 2026)
